Experimental data as given in paper doi:10.1101/2024.04.24.590897 (bioRxiv, 2024).

Target: Flag-LEDGF/p75 (UniProt O75475 1-530)
Assay: AlphaScreen or HTRF

B1: GST-LEDGF/p52 (natural protein)
chain: not shown
B1: binds.
